The numbers were not newly measured in publication PMC4652184, which cites them from elsewhere.

Usually Kd stands for the concentration at which binding is half-saturated.

The target of the data set is Slit2 (Homo sapiens) (UniProt O94813).
Chain of Slit2 (Homo sapiens) (O94813 31-1529): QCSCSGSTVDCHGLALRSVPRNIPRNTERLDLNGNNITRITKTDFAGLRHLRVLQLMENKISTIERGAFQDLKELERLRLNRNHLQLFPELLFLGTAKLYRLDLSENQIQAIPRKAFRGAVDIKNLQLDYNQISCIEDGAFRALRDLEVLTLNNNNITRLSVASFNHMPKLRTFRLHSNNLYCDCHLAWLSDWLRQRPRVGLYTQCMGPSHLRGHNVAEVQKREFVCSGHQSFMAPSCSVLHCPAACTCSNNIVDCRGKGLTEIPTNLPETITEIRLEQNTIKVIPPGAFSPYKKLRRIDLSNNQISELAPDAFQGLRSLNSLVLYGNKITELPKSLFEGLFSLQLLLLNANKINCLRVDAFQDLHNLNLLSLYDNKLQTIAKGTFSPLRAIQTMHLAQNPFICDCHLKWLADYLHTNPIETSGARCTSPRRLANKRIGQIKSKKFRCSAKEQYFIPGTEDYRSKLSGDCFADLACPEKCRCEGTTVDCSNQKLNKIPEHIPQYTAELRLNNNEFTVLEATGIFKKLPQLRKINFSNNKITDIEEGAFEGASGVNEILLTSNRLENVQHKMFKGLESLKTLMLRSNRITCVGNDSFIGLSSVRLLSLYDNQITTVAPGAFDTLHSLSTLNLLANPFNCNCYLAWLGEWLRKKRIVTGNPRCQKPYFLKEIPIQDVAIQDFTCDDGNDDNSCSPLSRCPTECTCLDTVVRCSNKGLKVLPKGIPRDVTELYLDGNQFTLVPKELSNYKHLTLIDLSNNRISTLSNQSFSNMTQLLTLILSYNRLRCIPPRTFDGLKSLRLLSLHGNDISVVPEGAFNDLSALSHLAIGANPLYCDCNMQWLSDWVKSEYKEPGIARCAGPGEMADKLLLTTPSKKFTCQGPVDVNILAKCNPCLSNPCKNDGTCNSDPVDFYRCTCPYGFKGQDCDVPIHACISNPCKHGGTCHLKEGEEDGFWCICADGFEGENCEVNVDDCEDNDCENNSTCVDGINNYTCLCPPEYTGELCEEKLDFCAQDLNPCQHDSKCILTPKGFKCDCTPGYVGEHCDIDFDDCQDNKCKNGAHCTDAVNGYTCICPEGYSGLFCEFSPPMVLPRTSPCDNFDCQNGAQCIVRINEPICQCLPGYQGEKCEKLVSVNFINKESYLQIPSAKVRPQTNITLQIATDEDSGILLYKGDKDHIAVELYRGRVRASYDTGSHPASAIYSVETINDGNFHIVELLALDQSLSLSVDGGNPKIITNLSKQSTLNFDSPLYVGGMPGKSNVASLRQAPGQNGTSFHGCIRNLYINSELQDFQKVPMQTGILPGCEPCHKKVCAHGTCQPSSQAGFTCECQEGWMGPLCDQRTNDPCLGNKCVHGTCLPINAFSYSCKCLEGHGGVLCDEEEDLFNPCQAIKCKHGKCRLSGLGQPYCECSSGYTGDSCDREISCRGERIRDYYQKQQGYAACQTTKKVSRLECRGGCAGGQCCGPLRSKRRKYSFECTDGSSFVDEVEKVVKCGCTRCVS

Chain of Robo1 (Q9Y6N7 26-897): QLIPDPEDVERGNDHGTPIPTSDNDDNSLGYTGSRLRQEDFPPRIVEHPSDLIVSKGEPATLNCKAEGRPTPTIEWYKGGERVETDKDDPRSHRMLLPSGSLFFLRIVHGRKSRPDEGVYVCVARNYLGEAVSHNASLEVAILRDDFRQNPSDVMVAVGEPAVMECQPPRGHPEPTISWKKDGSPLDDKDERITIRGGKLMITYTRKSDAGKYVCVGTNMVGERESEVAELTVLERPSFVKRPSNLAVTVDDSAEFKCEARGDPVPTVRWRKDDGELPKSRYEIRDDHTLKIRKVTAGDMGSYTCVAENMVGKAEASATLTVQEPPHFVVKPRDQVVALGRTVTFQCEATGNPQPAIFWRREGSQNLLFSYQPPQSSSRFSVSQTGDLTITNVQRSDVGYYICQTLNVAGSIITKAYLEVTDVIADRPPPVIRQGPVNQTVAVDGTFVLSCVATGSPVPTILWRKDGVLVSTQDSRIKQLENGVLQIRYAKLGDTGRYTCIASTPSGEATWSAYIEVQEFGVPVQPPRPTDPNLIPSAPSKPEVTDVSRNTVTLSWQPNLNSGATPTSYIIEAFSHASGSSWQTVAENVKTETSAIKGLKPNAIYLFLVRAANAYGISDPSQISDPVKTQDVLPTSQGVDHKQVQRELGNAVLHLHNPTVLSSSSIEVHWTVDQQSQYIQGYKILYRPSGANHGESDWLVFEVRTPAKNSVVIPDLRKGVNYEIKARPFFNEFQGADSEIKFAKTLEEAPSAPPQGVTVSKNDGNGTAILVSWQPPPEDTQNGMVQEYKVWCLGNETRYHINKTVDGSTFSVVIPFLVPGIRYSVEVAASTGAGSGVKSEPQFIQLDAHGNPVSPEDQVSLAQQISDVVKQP

Robo1 (from UniProt Q9Y6N7): the Kd is 4.5 nM.
